In the assay the target is T1, Trypanosoma brucei enolase (Trypanosoma brucei).
T1 chain: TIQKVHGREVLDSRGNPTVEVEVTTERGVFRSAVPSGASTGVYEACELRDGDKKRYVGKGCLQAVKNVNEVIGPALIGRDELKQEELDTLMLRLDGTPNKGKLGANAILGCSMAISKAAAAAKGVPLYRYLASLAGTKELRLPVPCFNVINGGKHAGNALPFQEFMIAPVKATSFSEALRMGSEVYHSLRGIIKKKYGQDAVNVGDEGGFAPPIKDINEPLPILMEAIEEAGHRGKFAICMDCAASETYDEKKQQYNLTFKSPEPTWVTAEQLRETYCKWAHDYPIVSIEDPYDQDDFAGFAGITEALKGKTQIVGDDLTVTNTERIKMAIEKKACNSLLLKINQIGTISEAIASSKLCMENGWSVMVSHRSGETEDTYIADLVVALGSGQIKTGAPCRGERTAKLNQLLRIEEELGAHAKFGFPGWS
In words: ITC. For orientation: Isothermal titration calorimetry measures the heat released or taken up as one component is titrated into another.

B1: sdAbR1-10 (VHH)
VHH: QVQLQESGGGLVQPGGSLRLSCAAPGSIFSIFSGNIMGWYRQAPGKQRDFVASISSGGATNYADSVKGRFTISRDNAKNTVYLQMNNLKPEDTAVYYCNTVGGVHTNSWGQGTQVTVSS
One may read the Kd as the constant that tells how readily two partners part at equilibrium. The low end stands for a tighter complex, the high end for a looser complex. B1: binding was characterised by a dissociation constant (Kd) of 18.6 nM.

These data come from doi:10.64898/2025.12.17.694860 (2025).
